T1: HTRA3, P83110
T1 sequence (P83110 354-453, limits assumed, looked up): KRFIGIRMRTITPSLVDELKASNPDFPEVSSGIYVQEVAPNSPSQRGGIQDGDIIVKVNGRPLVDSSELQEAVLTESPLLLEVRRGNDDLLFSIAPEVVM

T2: MPP6, Q9NZW5
T2 sequence (Q9NZW5 125-219, limits assumed, looked up): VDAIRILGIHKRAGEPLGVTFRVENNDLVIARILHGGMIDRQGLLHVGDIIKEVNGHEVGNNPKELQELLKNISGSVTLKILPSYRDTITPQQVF

T3: TJP3_3, O95049
T3 sequence (O95049 375-456, limits assumed, looked up): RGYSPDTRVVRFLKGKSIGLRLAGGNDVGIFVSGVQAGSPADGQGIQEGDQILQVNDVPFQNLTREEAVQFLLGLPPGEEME

T4: NHERF3_3, Q5T2W1
T4 sequence (Q5T2W1 238-333, limits assumed, looked up): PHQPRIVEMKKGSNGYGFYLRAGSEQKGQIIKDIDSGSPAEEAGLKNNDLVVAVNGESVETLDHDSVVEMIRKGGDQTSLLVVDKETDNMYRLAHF

T5: DFNB31_1, Q9P202
T5 sequence (Q9P202 135-233, limits assumed, looked up): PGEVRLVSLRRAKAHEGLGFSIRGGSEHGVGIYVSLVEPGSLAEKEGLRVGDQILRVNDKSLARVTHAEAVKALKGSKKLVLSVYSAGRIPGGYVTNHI

T6: RHPN1, Q8TCX5
T6 sequence (Q8TCX5 508-602, limits assumed, looked up): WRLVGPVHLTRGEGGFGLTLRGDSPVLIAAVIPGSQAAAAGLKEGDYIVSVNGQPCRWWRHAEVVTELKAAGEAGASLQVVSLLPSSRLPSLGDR

T7: MPDZ_5, O75970
T7 sequence (O75970 695-796, limits assumed, looked up): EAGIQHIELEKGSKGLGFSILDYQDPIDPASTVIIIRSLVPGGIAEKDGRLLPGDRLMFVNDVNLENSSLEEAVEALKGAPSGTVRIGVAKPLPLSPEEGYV

T8: PCLO, Q9Y6V0
T8 sequence (Q9Y6V0 4491-4600, limits assumed, looked up): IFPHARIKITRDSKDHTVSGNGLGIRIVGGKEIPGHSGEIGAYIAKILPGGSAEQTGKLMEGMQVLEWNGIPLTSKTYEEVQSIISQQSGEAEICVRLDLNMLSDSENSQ

T9: APBA1_1, Q02410
T9 sequence (Q02410 651-752, limits assumed, looked up): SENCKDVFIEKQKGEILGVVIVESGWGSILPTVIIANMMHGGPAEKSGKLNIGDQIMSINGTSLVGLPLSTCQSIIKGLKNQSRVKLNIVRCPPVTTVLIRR

T10: ARHGAP21, Q5T5U3
T10 sequence (Q5T5U3 45-169, limits assumed, looked up): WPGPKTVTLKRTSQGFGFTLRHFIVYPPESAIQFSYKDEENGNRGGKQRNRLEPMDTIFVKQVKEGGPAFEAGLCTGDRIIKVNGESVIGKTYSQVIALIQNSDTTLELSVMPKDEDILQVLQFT

T11: DLG3_3, Q92796
T11 sequence (Q92796 374-475, limits assumed, looked up): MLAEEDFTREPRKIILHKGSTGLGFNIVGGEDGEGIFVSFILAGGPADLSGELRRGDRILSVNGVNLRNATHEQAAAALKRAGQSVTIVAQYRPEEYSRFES

T12: DLG3_1, Q92796
T12 sequence (Q92796 125-227, limits assumed, looked up): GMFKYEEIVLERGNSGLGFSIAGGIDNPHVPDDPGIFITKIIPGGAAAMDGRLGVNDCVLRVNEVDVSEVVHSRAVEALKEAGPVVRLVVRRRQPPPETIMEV

T13: HTRA4, P83105
T13 sequence (P83105 378-476, limits assumed, looked up): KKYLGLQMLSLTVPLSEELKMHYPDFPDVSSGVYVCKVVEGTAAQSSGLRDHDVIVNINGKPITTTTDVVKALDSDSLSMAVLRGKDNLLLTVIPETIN

B1: HTR2A, P28223 (peptide)
chain: DGVNEKVSCV
B2: SRC, P12931 (peptide)
chain: EPQYQPGENL
B3: KCNV1, Q6PIU1 (peptide)
chain: RSSGGDDFWF

Experiments:
Assay in all cases: holdup assay
Parameters in all cases: key: below the threshold = too weak to quantify, mostly under pKd 3.1 to 4
Conditions in all cases: plain residues with an end cap or a label only (N-terminal biotin on a linker: ado-ado)
[1] = molecular target: T1, HTRA3, P83110
[2] = molecular target: T2, MPP6, Q9NZW5
[3] = molecular target: T3, TJP3_3, O95049
[4] = molecular target: T4, NHERF3_3, Q5T2W1
[5] = molecular target: T5, DFNB31_1, Q9P202
[6] = molecular target: LNX1_1, Q8TBB1
Chain of LNX1_1, Q8TBB1 (Q8TBB1 261-371): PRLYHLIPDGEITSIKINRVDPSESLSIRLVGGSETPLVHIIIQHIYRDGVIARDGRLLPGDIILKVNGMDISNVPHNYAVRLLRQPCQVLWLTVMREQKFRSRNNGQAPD

[7] = molecular target: MAGI2_6, Q86UL8
Chain of MAGI2_6, Q86UL8 (Q86UL8 1141-1229): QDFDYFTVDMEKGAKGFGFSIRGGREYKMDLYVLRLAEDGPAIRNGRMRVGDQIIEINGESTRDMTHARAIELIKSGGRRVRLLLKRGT

[8] = molecular target: GORASP2, Q9H8Y8
[9] = molecular target: T6, RHPN1, Q8TCX5
[10] = molecular target: T7, MPDZ_5, O75970
[11] = molecular target: T8, PCLO, Q9Y6V0
[12] = molecular target: T9, APBA1_1, Q02410
[13] = molecular target: MAGI1_1, Q96QZ7
Chain of MAGI1_1, Q96QZ7 (Q96QZ7 1-106): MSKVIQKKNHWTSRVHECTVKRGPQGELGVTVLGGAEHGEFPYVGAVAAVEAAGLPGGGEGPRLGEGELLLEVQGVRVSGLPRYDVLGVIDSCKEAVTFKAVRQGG

[14] = molecular target: T10, ARHGAP21, Q5T5U3
[15] = molecular target: PDZRN4_1, Q6ZMN7
Chain of PDZRN4_1, Q6ZMN7 (Q6ZMN7 213-318): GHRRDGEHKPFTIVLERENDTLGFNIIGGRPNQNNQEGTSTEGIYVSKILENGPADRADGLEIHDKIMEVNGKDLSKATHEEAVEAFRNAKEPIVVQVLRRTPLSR

[16] = molecular target: LIMK2, P53671
Chain of LIMK2, P53671 (P53671 143-248): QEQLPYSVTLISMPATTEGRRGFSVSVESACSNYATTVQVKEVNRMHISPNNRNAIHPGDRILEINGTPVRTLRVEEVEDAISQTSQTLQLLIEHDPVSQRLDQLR

[17] = molecular target: T11, DLG3_3, Q92796
[18] = molecular target: PTPN3, P26045
Chain of PTPN3, P26045 (P26045 505-587): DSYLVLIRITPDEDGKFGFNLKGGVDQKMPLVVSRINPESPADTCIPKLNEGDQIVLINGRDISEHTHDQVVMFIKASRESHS

[19] = molecular target: ARHGEF12, Q9NZN5-2
Chain of ARHGEF12, Q9NZN5-2 (Q9NZN5 other isoform, or with tags, fused parts or gaps): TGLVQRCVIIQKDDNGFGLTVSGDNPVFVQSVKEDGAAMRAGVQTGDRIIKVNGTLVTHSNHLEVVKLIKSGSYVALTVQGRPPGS

[20] = molecular target: DLG1_1, Q12959
[21] = molecular target: T12, DLG3_1, Q92796
[22] = molecular target: LNX1_3, Q8TBB1
Chain of LNX1_3, Q8TBB1 (Q8TBB1 500-596): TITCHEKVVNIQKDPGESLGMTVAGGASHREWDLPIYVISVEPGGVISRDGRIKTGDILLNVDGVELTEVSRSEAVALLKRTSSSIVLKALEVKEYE

[23] = molecular target: GORASP1, Q9BQQ3
Chain of GORASP1, Q9BQQ3 (Q9BQQ3 1-208): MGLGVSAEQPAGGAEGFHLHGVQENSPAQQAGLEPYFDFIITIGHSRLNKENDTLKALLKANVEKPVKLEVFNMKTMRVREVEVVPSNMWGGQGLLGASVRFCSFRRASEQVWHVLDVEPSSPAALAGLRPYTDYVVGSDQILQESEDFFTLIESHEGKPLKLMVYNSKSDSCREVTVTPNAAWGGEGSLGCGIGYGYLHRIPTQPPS

[24] = molecular target: T13, HTRA4, P83105

| Binder | pKd [1] | pKd [2] | pKd [3] | pKd [4] | pKd [5] | pKd [6] | pKd [7] | pKd [8] | pKd [9] | pKd [10] | pKd [11] | pKd [12] | pKd [13] | pKd [14] | pKd [15] | pKd [16] | pKd [17] | pKd [18] | pKd [19] | pKd [20] | further results |
| --- | --- | --- | --- | --- | --- | --- | --- | --- | --- | --- | --- | --- | --- | --- | --- | --- | --- | --- | --- | --- | --- |
| B1 | 3.94 | below the threshold | below the threshold | below the threshold | below the threshold | 4.48 | 4.47 | 3.74 | 4.66 | below the threshold | below the threshold | below the threshold | below the threshold | below the threshold | below the threshold | below the threshold | below the threshold | 4.86 | 4.36 | 3.84 | pKd [21]: below the threshold; pKd [22]: below the threshold; pKd [23]: below the threshold; pKd [24]: 3.71 |
| B2 | below the threshold | below the threshold | below the threshold | below the threshold | below the threshold | below the threshold | 3.84 | below the threshold | below the threshold | below the threshold | below the threshold | below the threshold | below the threshold | 4 | 3.52 | below the threshold | below the threshold | below the threshold | below the threshold | below the threshold | pKd [21]: below the threshold; pKd [22]: below the threshold; pKd [23]: below the threshold; pKd [24]: 3.9 |
| B3 | 4.37 | below the threshold | below the threshold | below the threshold | below the threshold | below the threshold | below the threshold | 4.21 | below the threshold | below the threshold | below the threshold | below the threshold | below the threshold | 4.8 | below the threshold | below the threshold | below the threshold | 4.35 | below the threshold | below the threshold | pKd [21]: below the threshold; pKd [22]: below the threshold; pKd [23]: below the threshold; pKd [24]: below the threshold |
